*1 amine or outer side, *2 acyl side, *3 side chain or, on linkers, in order; H or OH if unused. [ ]: non-standard residue; d: D form. TyrEtNAc = L-tyrosine O-ethyl acetamide, (S)-3-(4-(2-acetamidoethoxy)phenyl)-2-aminopropanoic acid, CC(=O)NCCOc1ccc(C[C@H](N[*:1])C(=O)[*:2])cc1; 3Pal4Ph4CO2H = (S)-4-(5-(2-amino-2-carboxyethyl)pyridin-2-yl)benzoic acid, O=C([C@H](Cc1ccc(-c2ccc(C(=O)[*:3])cc2)nc1)N[*:1])[*:2]; TyrEtMor = (S)-2-amino-3-(4-(2-morpholinoethoxy)phenyl)propanoic acid, O=C([C@H](Cc1ccc(OCCN2CCOCC2)cc1)N[*:1])[*:2]; Pro(trans-4-NH2) = O=C([C@@H]1C[C@@H](N[*:3])CN1[*:1])[*:2]; Bip(4'-COOH) = N[C@@H](Cc1ccc(-c2ccc(C(=O)O)cc2)cc1)C(=O)O; 1Nal(3S-Me) = C[C@@H](c1cccc2ccccc12)[C@H](N)C(=O)O; Ala(indazol-1-yl) = N[C@@H](Cn1ncc2ccccc21)C(=O)O; Ala(indolin-1-yl) = N[C@@H](CN1CCc2ccccc21)C(=O)O; Phe(4-COOH) = N[C@@H](Cc1ccc(C(=O)O)cc1)C(=O)O; 1Nal = N[C@@H](Cc1cccc2ccccc12)C(=O)O; hTyr = N[C@@H](CCc1ccc(O)cc1)C(=O)O; dNMeA = CN[C@H](C)C(=O)O; Dab = NCC[C@H](N)C(=O)O; Dap = NC[C@H](N)C(=O)O; Aib = CC(C)(N)C(=O)O
B1: SEQ ID NO: 16 (peptide)
peptide: cyclo([Bip(4'-COOH)]W[Phe(4-COOH)]G[Pro(trans-4-NH2)][1Nal(3S-Me)]D[dNMeA]G[Bip(4'-COOH)][1Nal][Dab][Aib][hTyr])
SMILES: C[C@@H]1C(=O)NCC(=O)N[C@@H](Cc2ccc(-c3ccc(C(=O)O)cc3)cc2)C(=O)N[C@@H](Cc2cccc3ccccc23)C(=O)N[C@@H](CCN)C(=O)NC(C)(C)C(=O)N[C@@H](CCc2ccc(O)cc2)C(=O)N[C@@H](Cc2ccc(-c3ccc(C(=O)O)cc3)cc2)C(=O)N[C@@H](Cc2c[nH]c3ccccc23)C(=O)N[C@@H](Cc2ccc(C(=O)O)cc2)C(=O)NCC(=O)N2C[C@H](N)C[C@H]2C(=O)N[C@@H]([C@@H](C)c2cccc3ccccc23)C(=O)N[C@@H](CC(=O)O)C(=O)N1C
B2: SEQ ID NO: 119 (peptide)
peptide: cyclo([TyrEtNAc]W[Phe(4-COOH)]G[Pro(trans-4-NH2)][1Nal(3S-Me)]D[dNMeA]G[Bip(4'-COOH)]W[Dap][dA][hTyr])
SMILES: CC(=O)NCCOc1ccc(C[C@@H]2NC(=O)[C@H](CCc3ccc(O)cc3)NC(=O)[C@@H](C)NC(=O)[C@H](CN)NC(=O)[C@H](Cc3c[nH]c4ccccc34)NC(=O)[C@H](Cc3ccc(-c4ccc(C(=O)O)cc4)cc3)NC(=O)CNC(=O)[C@@H](C)N(C)C(=O)[C@H](CC(=O)O)NC(=O)[C@H]([C@@H](C)c3cccc4ccccc34)NC(=O)[C@@H]3C[C@@H](N)CN3C(=O)CNC(=O)[C@H](Cc3ccc(C(=O)O)cc3)NC(=O)[C@H](Cc3c[nH]c4ccccc34)NC2=O)cc1
B3: SEQ ID NO: 14 (peptide)
peptide: cyclo([Bip(4'-COOH)]W[Phe(4-COOH)]G[Pro(trans-4-NH2)][1Nal(3S-Me)]D[dNMeA]G[Bip(4'-COOH)][Ala(indolin-1-yl)][Dap][dA][hTyr])
SMILES: C[C@@H]1C(=O)NCC(=O)N[C@@H](Cc2ccc(-c3ccc(C(=O)O)cc3)cc2)C(=O)N[C@@H](CN2CCc3ccccc32)C(=O)N[C@@H](CN)C(=O)N[C@H](C)C(=O)N[C@@H](CCc2ccc(O)cc2)C(=O)N[C@@H](Cc2ccc(-c3ccc(C(=O)O)cc3)cc2)C(=O)N[C@@H](Cc2c[nH]c3ccccc23)C(=O)N[C@@H](Cc2ccc(C(=O)O)cc2)C(=O)NCC(=O)N2C[C@H](N)C[C@H]2C(=O)N[C@@H]([C@@H](C)c2cccc3ccccc23)C(=O)N[C@@H](CC(=O)O)C(=O)N1C
B4: SEQ ID NO: 15 (peptide)
peptide: cyclo([Bip(4'-COOH)]W[Phe(4-COOH)]G[Pro(trans-4-NH2)][1Nal(3S-Me)]D[dNMeA]G[Bip(4'-COOH)][1Nal][Dab][Aib]G)
SMILES: C[C@@H]1C(=O)NCC(=O)N[C@@H](Cc2ccc(-c3ccc(C(=O)O)cc3)cc2)C(=O)N[C@@H](Cc2cccc3ccccc23)C(=O)N[C@@H](CCN)C(=O)NC(C)(C)C(=O)NCC(=O)N[C@@H](Cc2ccc(-c3ccc(C(=O)O)cc3)cc2)C(=O)N[C@@H](Cc2c[nH]c3ccccc23)C(=O)N[C@@H](Cc2ccc(C(=O)O)cc2)C(=O)NCC(=O)N2C[C@H](N)C[C@H]2C(=O)N[C@@H]([C@@H](C)c2cccc3ccccc23)C(=O)N[C@@H](CC(=O)O)C(=O)N1C
B5: SEQ ID NO: 120 (peptide)
peptide: cyclo([TyrEtNAc]W[Phe(4-COOH)]G[Pro(trans-4-NH2)][1Nal(3S-Me)]D[dNMeA]G[Bip(4'-COOH)]W[Dap][dA][TyrEtMor])
SMILES: CC(=O)NCCOc1ccc(C[C@@H]2NC(=O)[C@H](Cc3ccc(OCCN4CCOCC4)cc3)NC(=O)[C@@H](C)NC(=O)[C@H](CN)NC(=O)[C@H](Cc3c[nH]c4ccccc34)NC(=O)[C@H](Cc3ccc(-c4ccc(C(=O)O)cc4)cc3)NC(=O)CNC(=O)[C@@H](C)N(C)C(=O)[C@H](CC(=O)O)NC(=O)[C@H]([C@@H](C)c3cccc4ccccc34)NC(=O)[C@@H]3C[C@@H](N)CN3C(=O)CNC(=O)[C@H](Cc3ccc(C(=O)O)cc3)NC(=O)[C@H](Cc3c[nH]c4ccccc34)NC2=O)cc1
B6: SEQ ID NO: 12 (peptide)
peptide: cyclo([Bip(4'-COOH)]W[Phe(4-COOH)]G[Pro(trans-4-NH2)][1Nal(3S-Me)]D[dNMeA]G[3Pal4Ph4CO2H]W[Dap][dA][hTyr])
SMILES: C[C@@H]1C(=O)NCC(=O)N[C@@H](Cc2ccc(-c3ccc(C(=O)O)cc3)nc2)C(=O)N[C@@H](Cc2c[nH]c3ccccc23)C(=O)N[C@@H](CN)C(=O)N[C@H](C)C(=O)N[C@@H](CCc2ccc(O)cc2)C(=O)N[C@@H](Cc2ccc(-c3ccc(C(=O)O)cc3)cc2)C(=O)N[C@@H](Cc2c[nH]c3ccccc23)C(=O)N[C@@H](Cc2ccc(C(=O)O)cc2)C(=O)NCC(=O)N2C[C@H](N)C[C@H]2C(=O)N[C@@H]([C@@H](C)c2cccc3ccccc23)C(=O)N[C@@H](CC(=O)O)C(=O)N1C
B7: SEQ ID NO: 117 (peptide)
peptide: cyclo([TyrEtNAc]W[Phe(4-COOH)]G[Pro(trans-4-NH2)][1Nal(3S-Me)]D[dNMeA]G[Bip(4'-COOH)]W[Dap][Aib][hTyr])
SMILES: CC(=O)NCCOc1ccc(C[C@@H]2NC(=O)[C@H](CCc3ccc(O)cc3)NC(=O)C(C)(C)NC(=O)[C@H](CN)NC(=O)[C@H](Cc3c[nH]c4ccccc34)NC(=O)[C@H](Cc3ccc(-c4ccc(C(=O)O)cc4)cc3)NC(=O)CNC(=O)[C@@H](C)N(C)C(=O)[C@H](CC(=O)O)NC(=O)[C@H]([C@@H](C)c3cccc4ccccc34)NC(=O)[C@@H]3C[C@@H](N)CN3C(=O)CNC(=O)[C@H](Cc3ccc(C(=O)O)cc3)NC(=O)[C@H](Cc3c[nH]c4ccccc34)NC2=O)cc1
B8: SEQ ID NO: 118 (peptide)
peptide: cyclo([TyrEtNAc]W[Phe(4-COOH)]G[Pro(trans-4-NH2)][1Nal(3S-Me)]D[dNMeA]G[Bip(4'-COOH)]W[Dap][dA]A)
SMILES: CC(=O)NCCOc1ccc(C[C@@H]2NC(=O)[C@H](C)NC(=O)[C@@H](C)NC(=O)[C@H](CN)NC(=O)[C@H](Cc3c[nH]c4ccccc34)NC(=O)[C@H](Cc3ccc(-c4ccc(C(=O)O)cc4)cc3)NC(=O)CNC(=O)[C@@H](C)N(C)C(=O)[C@H](CC(=O)O)NC(=O)[C@H]([C@@H](C)c3cccc4ccccc34)NC(=O)[C@@H]3C[C@@H](N)CN3C(=O)CNC(=O)[C@H](Cc3ccc(C(=O)O)cc3)NC(=O)[C@H](Cc3c[nH]c4ccccc34)NC2=O)cc1
B9: SEQ ID NO: 13 (peptide)
peptide: cyclo([Bip(4'-COOH)]W[Phe(4-COOH)]G[Pro(trans-4-NH2)][1Nal(3S-Me)]D[dNMeA]G[Bip(4'-COOH)][Ala(indazol-1-yl)][Dap][dA][hTyr])
SMILES: C[C@@H]1C(=O)NCC(=O)N[C@@H](Cc2ccc(-c3ccc(C(=O)O)cc3)cc2)C(=O)N[C@@H](Cn2ncc3ccccc32)C(=O)N[C@@H](CN)C(=O)N[C@H](C)C(=O)N[C@@H](CCc2ccc(O)cc2)C(=O)N[C@@H](Cc2ccc(-c3ccc(C(=O)O)cc3)cc2)C(=O)N[C@@H](Cc2c[nH]c3ccccc23)C(=O)N[C@@H](Cc2ccc(C(=O)O)cc2)C(=O)NCC(=O)N2C[C@H](N)C[C@H]2C(=O)N[C@@H]([C@@H](C)c2cccc3ccccc23)C(=O)N[C@@H](CC(=O)O)C(=O)N1C

Target: Recombinant human IL-1β (BioLegend 579404) (human, UniProt P01584 117-269)
Assay: cell-based or functional assay

Row | MRC5 IC50 [nM] | Binder
1 | 0.175 | B1
2 | 0.0602 | B2
3 | 0.0297 | B3
4 | 0.653 | B4
5 | 0.86 | B5
6 | 0.0551 | B6
7 | 0.16 | B7
8 | 0.973 | B8
9 | 0.031 | B9

From patent US20230406885A1, “CYCLIC PEPTIDES FOR TRAPPING INTERLEUKIN-1 BETA” (MERCK SHARP & DOHME LLC, priority 2022, published 2023)
